Laboratory results as given in patent publication US20230400461A1 (TEKNOLOGIAN TUTKIMUSKESKUS VTT, published 2023).

T1: Staphylococcus aureus Enterotoxin A (Staphylococcus aureus, UniProt P0A0L2 25-257)
T1 sequence: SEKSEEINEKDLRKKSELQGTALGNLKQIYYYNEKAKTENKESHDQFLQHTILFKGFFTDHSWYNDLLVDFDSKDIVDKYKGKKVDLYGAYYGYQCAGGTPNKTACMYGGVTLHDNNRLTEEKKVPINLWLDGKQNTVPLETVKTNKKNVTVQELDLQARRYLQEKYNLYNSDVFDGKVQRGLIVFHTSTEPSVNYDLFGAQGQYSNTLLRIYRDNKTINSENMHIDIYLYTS

T2: Staphylococcus aureus Enterotoxin B (Staphylococcus aureus, UniProt P01552 28-266)
T2 sequence: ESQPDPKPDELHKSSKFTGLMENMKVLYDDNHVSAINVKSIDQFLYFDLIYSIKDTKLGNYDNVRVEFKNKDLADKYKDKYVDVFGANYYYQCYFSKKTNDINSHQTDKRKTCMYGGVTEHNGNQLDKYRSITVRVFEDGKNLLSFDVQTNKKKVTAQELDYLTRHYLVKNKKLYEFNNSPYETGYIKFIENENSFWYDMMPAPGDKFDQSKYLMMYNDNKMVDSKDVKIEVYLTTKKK

B1: anti-SEA (55) Fab (Fab, V domains shown)
VH: QVQLQQSGAELMKPGASVKISCKATGYTISSHWIEWVKQRPGHGLEWIGETLPGSGSTKYNEKFKGKATITADTSSNTAYMQLSSLTSEDSAVYYCARGDGNYGWFAYWGQGTLVTVSA
VL: DIVLTQSPALMAASPGEKVTITCSVSSSISSSNLHWYQQKSETSPKPWIYGTSNLASGVPVRFSGSGSGTSYSLTISSMEAEDAATYYCQQWSSYPLTFGAGTKLELK
B2: anti-SEA (90) Fab (Fab, V domains shown)
VH: EVQLQQSGPELVKPGASVKMSCKASGYTFTSYVMQWVKQKPGQGLEWIGYINPYNDGTKYNEKFKGKATLTSDKSSSTAYMELSSLTSEDSAVYYCARGDGVGGMDYWGQGTSVTVSS
VL: DIVMTQSPATLSVTPGDRVSLSCRASQSISDYLHWYQQKSHESPRLLIKYASQSISGIPSRFSGSGSGSDFTLSINSVEPEDVGVYYCQNGHSFPPTFGGGTKLEIK

What was measured:
[1] = biological target: T1, Staphylococcus aureus Enterotoxin A
[2] = biological target: T2, Staphylococcus aureus Enterotoxin B; assay: ELISA (screening; results not shown)

Binder | Kd [1] [nM] | koff [1] [s⁻¹] | kon [1] [M⁻¹ s⁻¹] | binding result [2]
B1 | 3.6 | 0.00035 | 97000 | no binding
B2 | 3 | 0.0013 | 420000 | no binding
